Consider 1 substance from patent US20260035476A1.

The test addresses CD68 protein (human) (UniProt P34810). The test can be described thus: flow cytometry on lupus patient PBMC, B cells (FIG. 3B). Background: A flow cytometer gives signals particle by particle.
Sequence of UniProt P34810 (P34810 22-354): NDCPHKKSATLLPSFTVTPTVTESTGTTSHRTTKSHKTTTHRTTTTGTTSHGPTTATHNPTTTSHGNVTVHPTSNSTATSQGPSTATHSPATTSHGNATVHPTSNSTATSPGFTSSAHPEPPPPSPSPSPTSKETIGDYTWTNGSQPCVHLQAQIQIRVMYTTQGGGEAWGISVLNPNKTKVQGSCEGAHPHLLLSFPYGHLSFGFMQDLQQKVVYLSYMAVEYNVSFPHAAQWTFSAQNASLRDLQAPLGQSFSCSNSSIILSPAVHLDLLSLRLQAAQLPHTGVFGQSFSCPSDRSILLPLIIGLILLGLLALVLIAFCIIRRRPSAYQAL

Y1/82A anti-CD68 monoclonal antibody displayed a percent of B cells co-stained for CD68 and ARID3a of 29%.
